Measurements: the supplement of paper PMC7125110
± gives the standard error. This sample holds only a part of the variants without activity.

B1: glmS ribozyme (parent)
chain: AUAAAAGCGCCAGAACUACAGAAAUGUAGUUGACGAGGAGGAGGUUUAUCGAAUUUUCGGCGGAUGCCUCCAAA

What was measured:
Conditions in all cases: with glucosamine-6-phosphate
[1] = variants of: B1; assay: self-cleavage kobs at 40 uM GlcN6P; higher = faster cleavage; RNA array
Outline: (§1)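 E. coli RNA polymerase transcribed barcoded ribozyme variants in situ on sequenced MiSeq chips, which were tracked via a hybridised Cy3 probe at 37 °C. Tiles were imaged over ~14 h after glucosamine-6-phosphate (40 μM to 10 mM) in HEPES/KCl/Mg(OAc)2 buffer was flowed in. Normalised per-tile medians were fit to one- or two-exponential decays for kobs, and kcat and KM came from weighted Michaelis–Menten fits.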

[2] = variants of: B1; assay: self-cleavage kobs at 640 uM GlcN6P; higher = faster cleavage; RNA array
Outline: as §1

[3] = variants of: B1; assay: self-cleavage kobs at 10000 uM GlcN6P; higher = faster cleavage; RNA array
Outline: as §1

[4] = variants of: B1; assay: self-cleavage kobs at 160 uM GlcN6P; higher = faster cleavage; RNA array
Outline: as §1

[5] = variants of: B1; assay: self-cleavage kobs at 2500 uM GlcN6P; higher = faster cleavage; RNA array
Outline: as §1

Variant	self-cleavage kobs at 40 uM GlcN6P [1] [s⁻¹]	self-cleavage kobs at 640 uM GlcN6P [2] [s⁻¹]	self-cleavage kobs at 10000 uM GlcN6P [3] [s⁻¹]	self-cleavage kobs at 160 uM GlcN6P [4] [s⁻¹]	self-cleavage kobs at 2500 uM GlcN6P [5] [s⁻¹]
C10A U31C	< 1e-05	< 1e-05	< 1e-05	–	–
C10G G13U A14U	< 1e-05	–	–	–	–
G38C G41A	< 1e-05	< 1e-05	< 1e-05	< 1e-05	< 1e-05
A15U A52U G66C	< 1e-05	–	–	< 1e-05	–
A48G U69A	< 1e-05	–	–	–	–
A12U A64G	0.000953 ± 0.00018	0.00536 ± 0.0011	0.052 ± 0.015	0.0025 ± 0.00063	0.0169 ± 0.0043
A6G A12G G66A	< 1e-05	< 1e-05	–	–	–
G38A A42U G44U A48G	< 1e-05	–	–	–	–
G32U A52G C68G	0.000277 ± 9.2e-05	–	0.000398 ± 9.5e-05	–	–
A42U A53G U56C C71U	< 1e-05	–	–	–	–
C8G A15U G62C	< 1e-05	< 1e-05	–	–	–
G9C U49A	< 1e-05	< 1e-05	< 1e-05	–	< 1e-05
C8A C11U	< 1e-05	< 1e-05	< 1e-05	–	< 1e-05
A53G C71U	0.000921 ± 0.00014	0.00661 ± 0.0013	0.0402 ± 0.013	0.0017 ± 0.00029	–
C11G G40A U45G	< 1e-05	< 1e-05	< 1e-05	–	< 1e-05
A15C G32U G60U	< 1e-05	–	< 1e-05	–	–
G51A U54A U55A	< 1e-05	–	–	–	–
U31C G32A G60U	< 1e-05	–	< 1e-05	–	< 1e-05
A12U A15U A42G	0.000666 ± 0.00019	0.00157 ± 0.00069	–	–	0.00849 ± 0.0038
A6U C10A C11G A12C U54C	< 1e-05	–	< 1e-05	–	–
A6C C58G	< 1e-05	< 1e-05	< 1e-05	–	–
A6G A52G A53G C67G	6.36e-05 ± 3.1e-05	0.00028 ± 0.00011	–	–	–
C16A G29U	0.000701 ± 7.4e-05	0.00517 ± 0.00081	0.0387 ± 0.0071	0.00212 ± 0.00064	0.0144 ± 0.0033
